# Results reported in IntAct's records for PubMed 12897162.
# B1: DNA repair protein rad60 (Schizosaccharomyces pombe (strain ATCC 38366 / 972)), Q9USX3 (parent)
# chain: MDNLDEDDLAFFSKPIKKPPLNYAKQLIASSSDSEEESELDTNKQALEHINAQKNITHNENKSAEPLSRQSTILDADEGNQDVSDTTPNACLNEGRHSPKSAISCVTQPVSPVYNTRAAANLRNNSINSEAALSTTSSLLDDDFARRLEEIDRQVQEFEKSSSDMDVQIHTHKREIEEDDDNTSADVPLLKHSKSDHSTLYHSKSEFSTNEPVISVVLQLAVIGQRIPNSNISLPRDWEAPLFFKVKSNQQFRRVRIAYSERKKVDNVVLVFQNQRLWDYGTPKGAGMLKVDTRLVVHAYCHSDFISLKRIKELEVEKLSSVTEDSTAQTCKLITLLLRSSKSEDLRLSIPVDFTVKDLIKRYCTEVKISFHERIRLEFEGEWLDPNDQVQSTELEDEDQVSVVLD
# partner: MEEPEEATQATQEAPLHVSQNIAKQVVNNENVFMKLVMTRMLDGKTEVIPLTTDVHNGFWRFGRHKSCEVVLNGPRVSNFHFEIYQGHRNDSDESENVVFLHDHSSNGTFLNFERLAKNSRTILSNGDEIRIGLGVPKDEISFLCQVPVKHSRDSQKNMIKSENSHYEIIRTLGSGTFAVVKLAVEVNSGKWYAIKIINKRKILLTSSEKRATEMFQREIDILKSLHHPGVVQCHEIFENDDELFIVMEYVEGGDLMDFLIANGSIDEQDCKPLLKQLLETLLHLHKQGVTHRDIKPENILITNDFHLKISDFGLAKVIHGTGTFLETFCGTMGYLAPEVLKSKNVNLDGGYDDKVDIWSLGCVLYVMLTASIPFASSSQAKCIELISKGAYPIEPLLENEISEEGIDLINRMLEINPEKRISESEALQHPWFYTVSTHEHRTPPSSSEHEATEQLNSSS
# B2: Serine/threonine-protein kinase cds1 (Schizosaccharomyces pombe (strain ATCC 38366 / 972)), Q09170 (parent)
# chain: B1 partner
# partner: B1 chain
# Variants of: B1
# Details: with rad53_schpo cds1, Q09170
row,effect of a mutation on the interaction,Variant
1,disrupting interaction,T72A;I232S;Q250R;K312N

# Variants of: B2
# Details: with rad60_schpo rad60, Q9USX3
row,effect of a mutation on the interaction,Variant
1,disrupting interaction,S78A;H81A
